Residue numbers refer to the chain shown, from its start. Numbers in names are those of the source.
Legend:
[1] = target: T1, rHuman EGF R/Fc Chimera, CF (R&D Systems Cat#344-ER) (human, UniProt P00533 25-645); test: ECL Multispot (MSD) assay, antigen spotted on plate, 10 nM Fab; blank spot 407
T1 construct: Bought recombinant Fc chimera; also called epidermal growth factor receptor; Fc part of the bought chimera not given

[2] = target: T2, rHuman ErbB2/Fc Chimera, CF (R&D Systems Cat#1129-ER) (human, UniProt P04626 23-652); test: as above
T2 construct: Bought recombinant Fc chimera; also called human epidermal growth factor 2 receptor; Fc part of the bought chimera not given

[3] = target: T3, rHuman P-Cadherin/Fc Chimera, CF (R&D Systems Cat#861-PC) (human, UniProt P22223 108-654); test: as above
T3 construct: Bought recombinant Fc chimera; Fc part of the bought chimera not given

[4] = target: T4, rHuman HGF R/c-MET/Fc Chimera, CF (R&D Systems Cat#358-MT/CF) (human, UniProt P08581 25-932); test: as above
T4 construct: Bought recombinant Fc chimera; also called HGF R/Fc; hepatocyte growth factor receptor; Fc part of the bought chimera not given
T4 sequence (P08581 25-932, change not shown): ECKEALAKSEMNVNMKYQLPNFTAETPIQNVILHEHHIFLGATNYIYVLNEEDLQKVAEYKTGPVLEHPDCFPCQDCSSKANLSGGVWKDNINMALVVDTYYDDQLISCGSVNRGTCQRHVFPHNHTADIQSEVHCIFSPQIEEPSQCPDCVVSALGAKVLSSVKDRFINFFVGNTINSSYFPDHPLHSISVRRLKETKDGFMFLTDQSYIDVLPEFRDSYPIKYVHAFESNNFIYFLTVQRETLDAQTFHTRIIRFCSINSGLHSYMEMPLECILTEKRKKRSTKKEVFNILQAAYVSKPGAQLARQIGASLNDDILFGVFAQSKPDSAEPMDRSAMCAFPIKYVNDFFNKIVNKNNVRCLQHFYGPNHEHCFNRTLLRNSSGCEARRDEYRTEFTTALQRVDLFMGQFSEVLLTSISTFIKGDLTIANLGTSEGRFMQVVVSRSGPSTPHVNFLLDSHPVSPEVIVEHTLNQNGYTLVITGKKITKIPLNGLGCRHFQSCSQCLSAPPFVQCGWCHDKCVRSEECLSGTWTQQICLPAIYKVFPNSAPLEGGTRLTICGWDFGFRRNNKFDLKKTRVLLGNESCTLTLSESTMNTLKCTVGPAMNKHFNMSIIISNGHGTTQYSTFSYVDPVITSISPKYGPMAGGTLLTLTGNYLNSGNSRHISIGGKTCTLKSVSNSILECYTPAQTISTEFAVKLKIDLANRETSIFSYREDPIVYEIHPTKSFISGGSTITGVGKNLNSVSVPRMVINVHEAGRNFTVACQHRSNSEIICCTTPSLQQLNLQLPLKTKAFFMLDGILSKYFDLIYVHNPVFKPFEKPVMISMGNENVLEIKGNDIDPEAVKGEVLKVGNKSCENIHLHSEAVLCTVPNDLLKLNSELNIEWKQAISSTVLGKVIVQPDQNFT

[5] = target: T5, rHuman IGF-1 sR, CF (R&D Systems Cat#391-GR) (human, UniProt P08069 31-932); test: as above
T5 construct: Bought soluble receptor; also called insulin-like growth factor-1 soluble receptor

[6] = target: T6, Recombinant Human DLL4 (R&D Systems Cat#1506-D4/CF) (human, UniProt Q9NR61 27-524); test: as above
T6 construct: Bought recombinant protein; also called delta-like protein 4; rHuman DLL4

[7] = target: T1, rHuman EGF R/Fc Chimera, CF (R&D …); test: ECL Multispot (MSD) assay, antigen spotted on plate, 10 nM Fab; blank spot 338
[8] = target: T2, rHuman ErbB2/Fc Chimera, CF (R&D …); test: as above
[9] = target: T3, rHuman P-Cadherin/Fc Chimera, CF (R&D …); test: as above
[10] = target: T4, rHuman HGF R/c-MET/Fc Chimera, CF (R&D …); test: as above
[11] = target: T5, rHuman IGF-1 sR, CF (R&D Systems …); test: as above
[12] = target: T6, Recombinant Human DLL4 (R&D Systems …); test: as above
[13] = target: T1, rHuman EGF R/Fc Chimera, CF (R&D …); test: ECL Multispot (MSD) assay, antigen spotted on plate, 10 nM Fab; blank spot 151
[14] = target: T2, rHuman ErbB2/Fc Chimera, CF (R&D …); test: as above
[15] = target: T7, rHuman CD44/Fc Chimera, CF (R&D Systems Cat#3660-CD) (human, UniProt P16070 21-220); test: as above
T7 construct: Bought recombinant Fc chimera; Fc part of the bought chimera not given

[16] = target: T3, rHuman P-Cadherin/Fc Chimera, CF (R&D …); test: as above
[17] = target: T4, rHuman HGF R/c-MET/Fc Chimera, CF (R&D …); test: as above
[18] = target: T5, rHuman IGF-1 sR, CF (R&D Systems …); test: as above
[19] = target: T8, rHuman Erythropoietin R/Fc Chimera, CF (R&D Systems Cat#963-ER) (human, UniProt P19235 25-250); test: as above
T8 construct: Bought recombinant Fc chimera; also called EPO R; EPO R/Fc; Fc part of the bought chimera not given
T8 sequence (looked up): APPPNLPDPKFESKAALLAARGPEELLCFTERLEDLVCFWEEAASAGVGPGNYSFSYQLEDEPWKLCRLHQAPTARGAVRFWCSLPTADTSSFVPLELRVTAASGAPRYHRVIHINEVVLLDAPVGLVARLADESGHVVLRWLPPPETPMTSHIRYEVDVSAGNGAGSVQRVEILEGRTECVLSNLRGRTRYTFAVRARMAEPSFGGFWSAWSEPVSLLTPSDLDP

[20] = target: T9, rHuman Notch-1/Fc Chimera, CF (R&D Systems Cat#3647-TK) (human, UniProt P46531 19-526); test: as above
T9 construct: Bought recombinant Fc chimera; Fc part of the bought chimera not given

[21] = target: T6, Recombinant Human DLL4 (R&D Systems …); test: as above
[22] = target: T1, rHuman EGF R/Fc Chimera, CF (R&D …); test: ECL Multispot (MSD) assay, antigen spotted on plate, 10 nM Fab; blank spot 367
[23] = target: T2, rHuman ErbB2/Fc Chimera, CF (R&D …); test: as above
[24] = target: T7, rHuman CD44/Fc Chimera, CF (R&D Systems …); test: as above
[25] = target: T3, rHuman P-Cadherin/Fc Chimera, CF (R&D …); test: as above
[26] = target: T4, rHuman HGF R/c-MET/Fc Chimera, CF (R&D …); test: as above
[27] = target: T5, rHuman IGF-1 sR, CF (R&D Systems …); test: as above
[28] = target: T8, rHuman Erythropoietin R/Fc Chimera, CF …; test: as above
[29] = target: T9, rHuman Notch-1/Fc Chimera, CF (R&D …); test: as above
[30] = target: T6, Recombinant Human DLL4 (R&D Systems …); test: as above
[31] = target: T1, rHuman EGF R/Fc Chimera, CF (R&D …); test: ECL Multispot (MSD) assay, antigen spotted on plate, 10 nM Fab; blank spot 322
[32] = target: T2, rHuman ErbB2/Fc Chimera, CF (R&D …); test: as above
[33] = target: T7, rHuman CD44/Fc Chimera, CF (R&D Systems …); test: as above
[34] = target: T3, rHuman P-Cadherin/Fc Chimera, CF (R&D …); test: as above
[35] = target: T4, rHuman HGF R/c-MET/Fc Chimera, CF (R&D …); test: as above
[36] = target: T5, rHuman IGF-1 sR, CF (R&D Systems …); test: as above
[37] = target: T8, rHuman Erythropoietin R/Fc Chimera, CF …; test: as above
[38] = target: T9, rHuman Notch-1/Fc Chimera, CF (R&D …); test: as above
[39] = target: T6, Recombinant Human DLL4 (R&D Systems …); test: as above

B1: Fab VH1-46_IGHD6-6*01_IGHJ1*01 S102A/S103P/S104F/H111F & L6_IGKJ1*01 (Fab, V domains shown)
VH: QVQLVQSGAEVKKPGASVKVSCKASGYTFTSYYMHWVRQAPGQGLEWMGIINPSGGSTSYAQKFQGRVTMTRDTSTSTVYMELSSLRSEDTAVYYCAREEYAPFSAEYFQFWGQGTLVTVSS
VL: not shown
notes: Fab expressed in E. coli: VH joined to CH1 from Plasmid A (with His6 and Flag tags), VL joined to kappa CL from Plasmid C; also called APFF; H:APFF & L:wt
Binder B1 has an ECL signal [1] of 329, an ECL signal [2] of 292 and an ECL signal [3] of 277. It also gave an ECL signal [4] of 237, an ECL signal [5] of 357 and an ECL signal [6] of 126000. The ECL signal [7] was 425, the ECL signal [8] was 379 and the ECL signal [9] was 399. The ECL signal [10] was 332, the ECL signal [11] was 468 and the ECL signal [12] was 149000.

B2: Fab VH1-46_IGHD6-6*01_IGHJ1*01 S102A/S103P/S104F/H111F S84T & L6_IGKJ1*01 (Fab, V domains shown)
VH: B1 VH with S84T
VL: not shown
notes: Fab expressed in E. coli: VH joined to CH1 from Plasmid A (with His6 and Flag tags), VL joined to kappa CL from Plasmid C; also called APFF S84T
With B2 the ECL signal [13] was 293, the ECL signal [14] was 297 and the ECL signal [15] was 352. The ECL signal [16] was 180, the ECL signal [17] was 274 and the ECL signal [18] was 281. For the same binder, the ECL signal [19] was 328, the ECL signal [20] was 372 and the ECL signal [21] was 163000.

B3: Fab VH1-46_IGHD6-6*01_IGHJ1*01 S102A/S103P/S104F/H111F S84K & L6_IGKJ1*01 (Fab, V domains shown)
VH: B1 VH with S84K
VL: not shown
notes: Fab expressed in E. coli: VH joined to CH1 from Plasmid A (with His6 and Flag tags), VL joined to kappa CL from Plasmid C; also called APFF S84K
Work on B3 yielded an ECL signal [22] of 301, an ECL signal [23] of 354 and an ECL signal [24] of 386. The ECL signal [25] was 517, the ECL signal [26] was 317 and the ECL signal [27] was 405. The ECL signal [28] was 528, the ECL signal [29] was 400 and the ECL signal [30] was 164000.

B4: Fab VH1-46_IGHD6-6*01_IGHJ1*01 S102A/S103P/S104F/H111F S84R & L6_IGKJ1*01 (Fab, V domains shown)
VH: B1 VH with S84R
VL: not shown
notes: Fab expressed in E. coli: VH joined to CH1 from Plasmid A (with His6 and Flag tags), VL joined to kappa CL from Plasmid C; also called APFF S84R
Binder B4 has an ECL signal [31] of 435, an ECL signal [32] of 372 and an ECL signal [33] of 335. The ECL signal [34] was 310, the ECL signal [35] was 392 and the ECL signal [36] was 395. For the same binder, the ECL signal [37] was 393, the ECL signal [38] was 377 and the ECL signal [39] was 139000.

Source: patent US20120316071A1 (published 2012)
